Target: Aca2 (anti-CRISPR associated protein 2) from Pectobacterium carotovorum bacteriophage ZF40 (Pectobacterium carotovorum bacteriophage ZF40)
Test: SEC; final size exclusion run of untagged Aca2 on HiPrep 16/60 Sephacryl S-200 in buffer S [50 mM Tris-HCl (pH 7.9), 500 mM KCl, 10% glycerol]; oligomer judged from the elution volume

Aca2 (anti-CRISPR associated protein 2) from Pectobacterium carotovorum bacteriophage ZF40 (natural protein)
stoichiometry N: 2

From paper PMC8434428
